Test results reported in paper PMC4434323.

How the values were obtained:
[1] = target: T1, hlh-12 (C28C12.8) (Caenorhabditis elegans) (UniProt Q18277)
T1 sequence: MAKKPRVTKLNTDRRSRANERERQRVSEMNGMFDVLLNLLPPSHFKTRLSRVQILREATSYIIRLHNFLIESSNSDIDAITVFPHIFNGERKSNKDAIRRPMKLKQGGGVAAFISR

[2] = target: T2, mbr-1 (T01C1.2) (Caenorhabditis elegans) (UniProt G5EGQ5)
T2 sequence: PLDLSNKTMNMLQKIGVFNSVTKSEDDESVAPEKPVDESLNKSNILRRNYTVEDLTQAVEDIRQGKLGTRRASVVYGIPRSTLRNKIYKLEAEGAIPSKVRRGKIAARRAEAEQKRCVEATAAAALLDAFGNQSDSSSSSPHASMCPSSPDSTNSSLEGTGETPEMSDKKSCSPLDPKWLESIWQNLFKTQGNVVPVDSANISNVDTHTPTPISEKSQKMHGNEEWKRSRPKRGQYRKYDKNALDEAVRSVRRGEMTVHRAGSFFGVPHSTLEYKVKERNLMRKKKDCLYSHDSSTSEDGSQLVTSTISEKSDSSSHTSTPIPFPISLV

[3] = target: gei-3 (T22H6.6) (Caenorhabditis elegans) (UniProt Q0G833)
[4] = target: T3, skn-1 (T19E7.2) (Caenorhabditis elegans) (UniProt P34707)
T3 sequence: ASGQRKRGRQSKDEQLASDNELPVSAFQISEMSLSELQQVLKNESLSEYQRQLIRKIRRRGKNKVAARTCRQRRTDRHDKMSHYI

[5] = target: T4, nhr-70 (Y51A2D.17) (Caenorhabditis elegans) (UniProt G5EEL3)
T4 sequence: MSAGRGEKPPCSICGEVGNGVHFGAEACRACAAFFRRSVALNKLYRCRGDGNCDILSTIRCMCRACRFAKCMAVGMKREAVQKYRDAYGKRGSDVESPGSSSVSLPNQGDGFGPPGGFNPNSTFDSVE

[6] = target: T5, odr-7 (T18D3.2) (Caenorhabditis elegans) (UniProt P41933)
T5 sequence: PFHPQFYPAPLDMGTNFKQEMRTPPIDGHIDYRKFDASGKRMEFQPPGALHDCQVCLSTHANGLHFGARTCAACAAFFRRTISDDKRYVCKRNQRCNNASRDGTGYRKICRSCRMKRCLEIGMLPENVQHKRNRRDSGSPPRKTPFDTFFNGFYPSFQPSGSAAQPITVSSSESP

[7] = target: T6, nhr-66 (T09A12.4) (Caenorhabditis elegans) (UniProt H2KYJ8)
T6 sequence: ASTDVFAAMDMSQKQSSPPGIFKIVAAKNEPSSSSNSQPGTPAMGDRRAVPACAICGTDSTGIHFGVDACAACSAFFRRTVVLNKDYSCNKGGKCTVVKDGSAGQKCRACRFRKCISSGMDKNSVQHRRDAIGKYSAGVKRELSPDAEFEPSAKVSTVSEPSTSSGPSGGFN

[8] = target: T7, nhr-232 (Y22F5A.1) (Caenorhabditis elegans) (UniProt A0A486WVR6)
T7 sequence: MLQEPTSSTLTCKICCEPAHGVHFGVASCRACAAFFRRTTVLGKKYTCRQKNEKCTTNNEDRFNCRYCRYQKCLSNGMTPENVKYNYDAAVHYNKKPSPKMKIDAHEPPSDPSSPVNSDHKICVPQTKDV

[9] = target: T8, nhr-142 (F44E7.8) (Caenorhabditis elegans) (UniProt J7SF93)
T8 sequence: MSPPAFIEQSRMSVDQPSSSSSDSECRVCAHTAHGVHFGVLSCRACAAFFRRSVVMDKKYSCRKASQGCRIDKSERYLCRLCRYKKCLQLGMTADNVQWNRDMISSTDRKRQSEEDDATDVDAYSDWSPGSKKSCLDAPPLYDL

[10] = target: T9, nhr-42 (C33G8.6) (Caenorhabditis elegans) (UniProt O76828)
T9 sequence: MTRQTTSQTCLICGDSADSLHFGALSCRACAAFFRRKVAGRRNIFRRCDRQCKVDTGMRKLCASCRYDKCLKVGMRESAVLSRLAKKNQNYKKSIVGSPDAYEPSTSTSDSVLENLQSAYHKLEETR

Chain of gei-3 (T22H6.6) (Caenorhabditis elegans) (Q0G833 entry or part of it): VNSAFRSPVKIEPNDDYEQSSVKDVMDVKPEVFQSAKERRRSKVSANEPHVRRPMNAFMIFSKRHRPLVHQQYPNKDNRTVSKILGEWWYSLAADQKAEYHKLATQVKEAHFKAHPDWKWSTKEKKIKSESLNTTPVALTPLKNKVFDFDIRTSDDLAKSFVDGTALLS

Which binding signal (PBM E-score (-0.5 to 0.5)) [1] does the source give for “CAGCTGTC (double strand) [8-mer CAGCTGTC]” here?
Its binding signal (PBM E-score (-0.5 to 0.5)) is 0.479.

“AGCCCCCC (double strand) [8-mer AGCCCCCC]” was tested. Which binding signal (PBM E-score (-0.5 to 0.5)) [2] did it give?
The binding signal (PBM E-score (-0.5 to 0.5)) was 0.491.

Which binding signal (PBM E-score (-0.5 to 0.5)) [3] does the source give for “ATGAATGA (double strand) [8-mer ATGAATGA]” here?
Its binding signal (PBM E-score (-0.5 to 0.5)) is 0.489.

Which binding signal (PBM E-score (-0.5 to 0.5)) [3] does the source give for “AAATGAAT (double strand) [8-mer AAATGAAT]” here?
The binding signal (PBM E-score (-0.5 to 0.5)) was 0.472.

With “ATGTCATC (double strand) [8-mer ATGTCATC]” as the sequence, how does the binding signal (PBM E-score (-0.5 to 0.5)) [4] read?
Its binding signal (PBM E-score (-0.5 to 0.5)) is 0.494.

“CGGGGGGC (double strand) [8-mer CGGGGGGC]” was tested. Which binding signal (PBM E-score (-0.5 to 0.5)) [2] did it give?
Its binding signal (PBM E-score (-0.5 to 0.5)) is 0.487.

How did the binding signal (PBM E-score (-0.5 to 0.5)) [1] turn out when “ACCATCTG (double strand) [8-mer ACCATCTG]” was run?
Its binding signal (PBM E-score (-0.5 to 0.5)) is 0.482.

How did the binding signal (PBM E-score (-0.5 to 0.5)) [4] turn out when “AGTCATCA (double strand) [8-mer AGTCATCA]” was run?
The binding signal (PBM E-score (-0.5 to 0.5)) was 0.491.

How did the binding signal (PBM E-score (-0.5 to 0.5)) [2] turn out when “AGGCCCCC (double strand) [8-mer AGGCCCCC]” was run?
Its binding signal (PBM E-score (-0.5 to 0.5)) is 0.495.

With “GAGGGGCC (double strand) [8-mer GAGGGGCC]” as the sequence, how does the binding signal (PBM E-score (-0.5 to 0.5)) [2] read?
Its binding signal (PBM E-score (-0.5 to 0.5)) is 0.489.

Which binding signal (PBM E-score (-0.5 to 0.5)) [5] does the source give for “ACTACAAT (double strand) [8-mer ACTACAAT]” here?
The binding signal (PBM E-score (-0.5 to 0.5)) was 0.49.

And the binding signal (PBM E-score (-0.5 to 0.5)) [6]?
The binding signal (PBM E-score (-0.5 to 0.5)) was 0.49.

What about the binding signal (PBM E-score (-0.5 to 0.5)) [7] of the same sequence?
The binding signal (PBM E-score (-0.5 to 0.5)) was 0.488.

With “AGGATGAC (double strand) [8-mer AGGATGAC]” as the sequence, how does the binding signal (PBM E-score (-0.5 to 0.5)) [4] read?
The binding signal (PBM E-score (-0.5 to 0.5)) was 0.489.

“CCCATTCA (double strand) [8-mer CCCATTCA]” was tested. Which binding signal (PBM E-score (-0.5 to 0.5)) [3] did it give?
Its binding signal (PBM E-score (-0.5 to 0.5)) is 0.478.

For “GCCCCCCA (double strand) [8-mer GCCCCCCA]”, which binding signal (PBM E-score (-0.5 to 0.5)) [2] is on record?
Its binding signal (PBM E-score (-0.5 to 0.5)) is 0.487.

For “ATGACAAA (double strand) [8-mer ATGACAAA]”, which binding signal (PBM E-score (-0.5 to 0.5)) [4] is on record?
Its binding signal (PBM E-score (-0.5 to 0.5)) is 0.493.

How did the binding signal (PBM E-score (-0.5 to 0.5)) [4] turn out when “GTCATCAC (double strand) [8-mer GTCATCAC]” was run?
Its binding signal (PBM E-score (-0.5 to 0.5)) is 0.492.

“GATGACAA (double strand) [8-mer GATGACAA]” was tested. Which binding signal (PBM E-score (-0.5 to 0.5)) [4] did it give?
The binding signal (PBM E-score (-0.5 to 0.5)) was 0.498.

For “CACAGCTG (double strand) [8-mer CACAGCTG]”, which binding signal (PBM E-score (-0.5 to 0.5)) [1] is on record?
The binding signal (PBM E-score (-0.5 to 0.5)) was 0.475.

“AAGGGGCC (double strand) [8-mer AAGGGGCC]” was tested. Which binding signal (PBM E-score (-0.5 to 0.5)) [2] did it give?
Its binding signal (PBM E-score (-0.5 to 0.5)) is 0.487.

With “ACAGCTGT (double strand) [8-mer ACAGCTGT]” as the sequence, how does the binding signal (PBM E-score (-0.5 to 0.5)) [1] read?
Its binding signal (PBM E-score (-0.5 to 0.5)) is 0.496.

With “GGATGACA (double strand) [8-mer GGATGACA]” as the sequence, how does the binding signal (PBM E-score (-0.5 to 0.5)) [4] read?
The binding signal (PBM E-score (-0.5 to 0.5)) was 0.489.

“TAGTCACA (double strand) [8-mer TAGTCACA]” was tested. Which binding signal (PBM E-score (-0.5 to 0.5)) [8] did it give?
Its binding signal (PBM E-score (-0.5 to 0.5)) is 0.482.

What about the binding signal (PBM E-score (-0.5 to 0.5)) [9] of the same sequence?
Its binding signal (PBM E-score (-0.5 to 0.5)) is 0.493.

And the binding signal (PBM E-score (-0.5 to 0.5)) [10]?
Its binding signal (PBM E-score (-0.5 to 0.5)) is 0.494.

With “ATGATGAC (double strand) [8-mer ATGATGAC]” as the sequence, how does the binding signal (PBM E-score (-0.5 to 0.5)) [4] read?
Its binding signal (PBM E-score (-0.5 to 0.5)) is 0.497.

For “AACATCTG (double strand) [8-mer AACATCTG]”, which binding signal (PBM E-score (-0.5 to 0.5)) [1] is on record?
Its binding signal (PBM E-score (-0.5 to 0.5)) is 0.481.

With “TCAATTGA (double strand) [8-mer TCAATTGA]” as the sequence, how does the binding signal (PBM E-score (-0.5 to 0.5)) [3] read?
Its binding signal (PBM E-score (-0.5 to 0.5)) is 0.484.

With “GCTACAAC (double strand) [8-mer GCTACAAC]” as the sequence, how does the binding signal (PBM E-score (-0.5 to 0.5)) [5] read?
Its binding signal (PBM E-score (-0.5 to 0.5)) is 0.483.

With “TGATGACA (double strand) [8-mer TGATGACA]” as the sequence, how does the binding signal (PBM E-score (-0.5 to 0.5)) [4] read?
Its binding signal (PBM E-score (-0.5 to 0.5)) is 0.495.

With “AGACTACA (double strand) [8-mer AGACTACA]” as the sequence, how does the binding signal (PBM E-score (-0.5 to 0.5)) [5] read?
The binding signal (PBM E-score (-0.5 to 0.5)) was 0.486.

And the binding signal (PBM E-score (-0.5 to 0.5)) [7]?
The binding signal (PBM E-score (-0.5 to 0.5)) was 0.487.

With “ACAGCTGG (double strand) [8-mer ACAGCTGG]” as the sequence, how does the binding signal (PBM E-score (-0.5 to 0.5)) [1] read?
The binding signal (PBM E-score (-0.5 to 0.5)) was 0.481.

How did the binding signal (PBM E-score (-0.5 to 0.5)) [5] turn out when “GCTACAAA (double strand) [8-mer GCTACAAA]” was run?
The binding signal (PBM E-score (-0.5 to 0.5)) was 0.489.

And the binding signal (PBM E-score (-0.5 to 0.5)) [6]?
The binding signal (PBM E-score (-0.5 to 0.5)) was 0.462.

What about the binding signal (PBM E-score (-0.5 to 0.5)) [7] of the same sequence?
The binding signal (PBM E-score (-0.5 to 0.5)) was 0.482.

“ATCAATGA (double strand) [8-mer ATCAATGA]” was tested. Which binding signal (PBM E-score (-0.5 to 0.5)) [3] did it give?
Its binding signal (PBM E-score (-0.5 to 0.5)) is 0.485.

For “GGCTACAC (double strand) [8-mer GGCTACAC]”, which binding signal (PBM E-score (-0.5 to 0.5)) [5] is on record?
Its binding signal (PBM E-score (-0.5 to 0.5)) is 0.487.

With “CGACTACA (double strand) [8-mer CGACTACA]” as the sequence, how does the binding signal (PBM E-score (-0.5 to 0.5)) [5] read?
The binding signal (PBM E-score (-0.5 to 0.5)) was 0.487.

With “AGGCTACA (double strand) [8-mer AGGCTACA]” as the sequence, how does the binding signal (PBM E-score (-0.5 to 0.5)) [5] read?
Its binding signal (PBM E-score (-0.5 to 0.5)) is 0.488.
